# Source: the RNAGym collection of RNA variant scans (doi:10.7554/elife.80360)
# B1: HDV Ribozyme (parent)
# chain: GGCCGGCAUGGUCCCAGCCUCCUCGCUGGCGCCGGCUGGGCAACAUUCCGAGGGGACCGUCCCCUCGGUAAUGGCGAAUGGGACCCA
# Variants of: B1
# Assay: self-cleavage, relative activity (ratio to wild type); higher = more cleavage; co-transcriptional
row,Variant,self-cleavage
1,U20C G34A,0.0504
2,U20A G29U,0.0875
3,U20C A43U,0.0378
4,U20C A43C,0.178
5,U20C A43G,0.0978
6,U20G C64G,0.196
7,U20G C64A,0.178
8,U20A A51G,0
9,U20A A51U,0.104
10,U20A A51C,0
11,U20C C32U,0.0426
12,U20C C32A,0.185
13,C19U G68C,0.148
14,C19U G68U,0.168
15,C19U G68A,0.148
16,U20C G52A,0.175
17,U20C G52C,0.244
18,U20A C33G,0.151
19,U20A G28C,0.0573
20,U20A G28U,0.0386
21,U20A G28A,0.145

row,Variant,self-cleavage
1,U20A C30A,0.0739
2,U20A C30U,0.0415
3,U20A U23G,0
4,C19U G55C,0.164
5,C19U G55A,0.225
6,U20C G54A,0.145
7,U20A A71C,0.0554
8,U20A A71U,0.0504
9,U20A G74U,0.0437
10,U20A G74A,0
11,C19U U47A,0.191
12,C19U U47C,0.111
13,U20A G55C,0.0536
14,U20A G55U,0.0302
15,U20A G38A,0.0332
16,U20A G38U,0.122
17,U20G C84A,0.222
18,U20G C84U,0.185
19,U20G A87C,0.282
20,U20G A87G,0.282
21,U20G G40A,0.374

row,Variant,self-cleavage
1,U20A U46C,0
2,U20A A78U,0
3,U20A A78G,0
4,U20A A78C,0.107
5,U20C G67C,0.405
6,U20G A70C,0.217
7,U20C G28C,0.0755
8,U20A A45C,0.0639
9,U20C A83U,0
10,U20C A83C,0.133
11,U20G A83U,0.0554
12,U20C C22U,0.125
13,U20A C63U,0.101
14,U20A C63A,0.0504
15,U20A C61G,0.0536
16,U20A C61U,0.208
17,U20G G53C,0.262
18,U20C A77C,0.0615
19,U20C A77G,0.208
20,U20C A87U,0.189
21,U20C A87C,0.254

row,Variant,self-cleavage
1,U20A C66A,0
2,U20A C66G,0.107
3,U20C G39U,0.0386
4,U20G G29A,0.161
5,U20G C44A,0.262
6,U20G C85U,0.0554
7,U20G C85G,0.158
8,U20G C85A,0.277
9,U20G C24G,0.151
10,U20G C24U,0
11,U20G C24A,0.17
12,U20G C58A,0.266
13,U20A A42C,0.0594
14,U20A A42U,0
15,U20A G68U,0
16,U20A G68A,0.0504
17,U20C U79G,0.185
18,U20C G35A,0.101
19,U20C G35C,0
20,U20A G59A,0.0302
